From paper PMC10786891, “Massively parallel profiling of RNA-targeting CRISPR-Cas13d”

T1: EsCas13d, nuclease-dead (Eubacterium siraeum, UniProt B0MS50, R295A;H300A;R849A;H854A)
T1 sequence: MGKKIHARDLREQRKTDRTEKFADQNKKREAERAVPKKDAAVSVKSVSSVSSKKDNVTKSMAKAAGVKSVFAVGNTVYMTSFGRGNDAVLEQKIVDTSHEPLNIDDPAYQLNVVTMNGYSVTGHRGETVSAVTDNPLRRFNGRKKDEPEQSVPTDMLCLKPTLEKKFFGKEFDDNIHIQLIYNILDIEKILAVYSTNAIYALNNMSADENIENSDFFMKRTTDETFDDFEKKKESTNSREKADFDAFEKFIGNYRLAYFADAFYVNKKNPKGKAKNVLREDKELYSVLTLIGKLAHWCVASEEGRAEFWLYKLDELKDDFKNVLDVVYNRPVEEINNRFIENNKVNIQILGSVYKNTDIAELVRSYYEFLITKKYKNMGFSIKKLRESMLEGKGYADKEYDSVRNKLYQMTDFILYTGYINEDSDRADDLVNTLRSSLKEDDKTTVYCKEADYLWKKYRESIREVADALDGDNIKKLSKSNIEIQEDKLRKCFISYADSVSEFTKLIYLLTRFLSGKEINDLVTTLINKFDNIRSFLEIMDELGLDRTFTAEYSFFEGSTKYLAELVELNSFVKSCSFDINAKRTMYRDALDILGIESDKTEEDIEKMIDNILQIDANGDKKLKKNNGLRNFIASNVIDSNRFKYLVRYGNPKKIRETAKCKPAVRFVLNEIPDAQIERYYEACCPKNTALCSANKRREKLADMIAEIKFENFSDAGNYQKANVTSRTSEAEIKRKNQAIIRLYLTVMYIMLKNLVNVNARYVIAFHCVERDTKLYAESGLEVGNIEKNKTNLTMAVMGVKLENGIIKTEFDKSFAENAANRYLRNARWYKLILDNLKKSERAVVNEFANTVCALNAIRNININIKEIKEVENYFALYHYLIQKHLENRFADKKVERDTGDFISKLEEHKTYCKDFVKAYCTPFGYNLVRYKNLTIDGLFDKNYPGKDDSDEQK


These binders were tested against T1, EsCas13d, nuclease-dead (assay: crRNA (strand 1, pre-loaded); Mg2+; 40 mM Tris-HCl pH 7.5, 150 mM NaCl, 6 mM MgCl2, 1 mM DTT, 0.1% Tween-20, 0.2 mg/ml BSA; 25 C; 10 min per concentration, then washed). Conditions: tags: His6-TwinStrep-SUMO cleaved; N-terminal SNAP kept (SNAP-Surface 488); label: 3' end held by stalled T7 RNA polymerase.

Row | Binder | Kd [nM]
1 | target 1 MT 5'PFS UCC 3'PFS CUC (mixed) RNA 1: CACCCGUGCAAAAAUGCAGGGGUCUAAAACUGAGCGGAUAACCUCUCUAUGG RNA 2: GGGAAUGGAUCCACAUCUACGAAUUCUCCCCAUAGAGAGGUUAUCCGCUCACUCAGAUCGGAAGAGCACACGU | ~24
2 | target 1 MT 5'PFS GGG 3'PFS AUU (mixed) RNA 1: CACCCGUGCAAAAAUGCAGGGGUCUAAAACUGAGCGGAUAACCUCUCUAUGG RNA 2: GGGAAUGGAUCCACAUCUACGAAUUCGGGCCAUAGAGAGGUUAUCCGCUCAAUUAGAUCGGAAGAGCACACGU | 17.3 ± 2.1
3 | target 1 MT 5'PFS GUC 3'PFS ACG (mixed) RNA 1: CACCCGUGCAAAAAUGCAGGGGUCUAAAACUGAGCGGAUAACCUCUCUAUGG RNA 2: GGGAAUGGAUCCACAUCUACGAAUUCGUCCCAUAGAGAGGUUAUCCGCUCAACGAGAUCGGAAGAGCACACGU | 25 ± 6.6
4 | target 1 MT 5'PFS GCA 3'PFS GGA (mixed) RNA 1: CACCCGUGCAAAAAUGCAGGGGUCUAAAACUGAGCGGAUAACCUCUCUAUGG RNA 2: GGGAAUGGAUCCACAUCUACGAAUUCGCACCAUAGAGAGGUUAUCCGCUCAGGAAGAUCGGAAGAGCACACGU | 80 ± 40
5 | target 1 MT 5'PFS ACG 3'PFS UCU (mixed) RNA 1: CACCCGUGCAAAAAUGCAGGGGUCUAAAACUGAGCGGAUAACCUCUCUAUGG RNA 2: GGGAAUGGAUCCACAUCUACGAAUUCACGCCAUAGAGAGGUUAUCCGCUCAUCUAGAUCGGAAGAGCACACGU | 9.65 ± 2.55
6 | target 1 MT 5'PFS GGG 3'PFS AUG (mixed) RNA 1: CACCCGUGCAAAAAUGCAGGGGUCUAAAACUGAGCGGAUAACCUCUCUAUGG RNA 2: GGGAAUGGAUCCACAUCUACGAAUUCGGGCCAUAGAGAGGUUAUCCGCUCAAUGAGAUCGGAAGAGCACACGU | 26.5 ± 4
7 | target 1 insC 3' of 17,insU 3' of 4 (mixed) RNA 1: CACCCGUGCAAAAAUGCAGGGGUCUAAAACUGAGCGGAUAACCUCUCUAUGG RNA 2: GGGAAUGGAUCCACAUCUACGAAUUCGUACCAUAGCAGAGGUUAUCCGCUUCACCGAGAUCGGAAGAGCACACGU | 46 ± 4
8 | target 1 insA 3' of 8,insC 3' of 1 (mixed) RNA 1: CACCCGUGCAAAAAUGCAGGGGUCUAAAACUGAGCGGAUAACCUCUCUAUGG RNA 2: GGGAAUGGAUCCACAUCUACGAAUUCGUACCAUAGAGAGGUUAUACCGCUCACCCGAGAUCGGAAGAGCACACGU | 14.7 ± 0.7
9 | target 1 MT 5'PFS GAA 3'PFS ACU (mixed) RNA 1: CACCCGUGCAAAAAUGCAGGGGUCUAAAACUGAGCGGAUAACCUCUCUAUGG RNA 2: GGGAAUGGAUCCACAUCUACGAAUUCGAACCAUAGAGAGGUUAUCCGCUCAACUAGAUCGGAAGAGCACACGU | 34 ± 12.5
10 | target 1 MT 5'PFS GGA 3'PFS CGG (mixed) RNA 1: CACCCGUGCAAAAAUGCAGGGGUCUAAAACUGAGCGGAUAACCUCUCUAUGG RNA 2: GGGAAUGGAUCCACAUCUACGAAUUCGGACCAUAGAGAGGUUAUCCGCUCACGGAGAUCGGAAGAGCACACGU | 20.6 ± 3.8
11 | target 1 MT 5'PFS GGA 3'PFS CGA (mixed) RNA 1: CACCCGUGCAAAAAUGCAGGGGUCUAAAACUGAGCGGAUAACCUCUCUAUGG RNA 2: GGGAAUGGAUCCACAUCUACGAAUUCGGACCAUAGAGAGGUUAUCCGCUCACGAAGAUCGGAAGAGCACACGU | 33.5 ± 10
12 | target 1 MT 5'PFS GUA 3'PFS AUA (mixed) RNA 1: CACCCGUGCAAAAAUGCAGGGGUCUAAAACUGAGCGGAUAACCUCUCUAUGG RNA 2: GGGAAUGGAUCCACAUCUACGAAUUCGUACCAUAGAGAGGUUAUCCGCUCAAUAAGAUCGGAAGAGCACACGU | 14.1 ± 1.15
13 | target 1 MT 5'PFS CAC 3'PFS CUG (mixed) RNA 1: CACCCGUGCAAAAAUGCAGGGGUCUAAAACUGAGCGGAUAACCUCUCUAUGG RNA 2: GGGAAUGGAUCCACAUCUACGAAUUCCACCCAUAGAGAGGUUAUCCGCUCACUGAGAUCGGAAGAGCACACGU | ~17
14 | target 1 MT 5'PFS UAA 3'PFS CCG (mixed) RNA 1: CACCCGUGCAAAAAUGCAGGGGUCUAAAACUGAGCGGAUAACCUCUCUAUGG RNA 2: GGGAAUGGAUCCACAUCUACGAAUUCUAACCAUAGAGAGGUUAUCCGCUCACCGAGAUCGGAAGAGCACACGU | 47.5 ± 15.5
15 | target 1 MT 5'PFS CUU 3'PFS CAG (mixed) RNA 1: CACCCGUGCAAAAAUGCAGGGGUCUAAAACUGAGCGGAUAACCUCUCUAUGG RNA 2: GGGAAUGGAUCCACAUCUACGAAUUCCUUCCAUAGAGAGGUUAUCCGCUCACAGAGAUCGGAAGAGCACACGU | 74 ± 30
16 | target 1 MT 5'PFS GGC 3'PFS UUU (mixed) RNA 1: CACCCGUGCAAAAAUGCAGGGGUCUAAAACUGAGCGGAUAACCUCUCUAUGG RNA 2: GGGAAUGGAUCCACAUCUACGAAUUCGGCCCAUAGAGAGGUUAUCCGCUCAUUUAGAUCGGAAGAGCACACGU | 11.3 ± 1.85
17 | target 1 MT 5'PFS AGG 3'PFS UCU (mixed) RNA 1: CACCCGUGCAAAAAUGCAGGGGUCUAAAACUGAGCGGAUAACCUCUCUAUGG RNA 2: GGGAAUGGAUCCACAUCUACGAAUUCAGGCCAUAGAGAGGUUAUCCGCUCAUCUAGAUCGGAAGAGCACACGU | 30.5 ± 9
18 | target 1 MT 5'PFS GAA 3'PFS ACC (mixed) RNA 1: CACCCGUGCAAAAAUGCAGGGGUCUAAAACUGAGCGGAUAACCUCUCUAUGG RNA 2: GGGAAUGGAUCCACAUCUACGAAUUCGAACCAUAGAGAGGUUAUCCGCUCAACCAGAUCGGAAGAGCACACGU | ~80
19 | target 1 MT 5'PFS GGA 3'PFS CGC (mixed) RNA 1: CACCCGUGCAAAAAUGCAGGGGUCUAAAACUGAGCGGAUAACCUCUCUAUGG RNA 2: GGGAAUGGAUCCACAUCUACGAAUUCGGACCAUAGAGAGGUUAUCCGCUCACGCAGAUCGGAAGAGCACACGU | 28.5 ± 11
20 | target 1 MT 5'PFS GUA 3'PFS AUU (mixed) RNA 1: CACCCGUGCAAAAAUGCAGGGGUCUAAAACUGAGCGGAUAACCUCUCUAUGG RNA 2: GGGAAUGGAUCCACAUCUACGAAUUCGUACCAUAGAGAGGUUAUCCGCUCAAUUAGAUCGGAAGAGCACACGU | 12.9 ± 1.15
21 | target 1 MT 5'PFS GGG 3'PFS AUC (mixed) RNA 1: CACCCGUGCAAAAAUGCAGGGGUCUAAAACUGAGCGGAUAACCUCUCUAUGG RNA 2: GGGAAUGGAUCCACAUCUACGAAUUCGGGCCAUAGAGAGGUUAUCCGCUCAAUCAGAUCGGAAGAGCACACGU | 35.5 ± 9.5
22 | target 1 MT 5'PFS GGG 3'PFS AUA (mixed) RNA 1: CACCCGUGCAAAAAUGCAGGGGUCUAAAACUGAGCGGAUAACCUCUCUAUGG RNA 2: GGGAAUGGAUCCACAUCUACGAAUUCGGGCCAUAGAGAGGUUAUCCGCUCAAUAAGAUCGGAAGAGCACACGU | 32 ± 6.5
23 | target 1 MT 5'PFS GAA 3'PFS ACG (mixed) RNA 1: CACCCGUGCAAAAAUGCAGGGGUCUAAAACUGAGCGGAUAACCUCUCUAUGG RNA 2: GGGAAUGGAUCCACAUCUACGAAUUCGAACCAUAGAGAGGUUAUCCGCUCAACGAGAUCGGAAGAGCACACGU | ~82
24 | target 1 MT 5'PFS CAC 3'PFS CUA (mixed) RNA 1: CACCCGUGCAAAAAUGCAGGGGUCUAAAACUGAGCGGAUAACCUCUCUAUGG RNA 2: GGGAAUGGAUCCACAUCUACGAAUUCCACCCAUAGAGAGGUUAUCCGCUCACUAAGAUCGGAAGAGCACACGU | 16 ± 5
25 | target 1 MT 5'PFS UAA 3'PFS CCU (mixed) RNA 1: CACCCGUGCAAAAAUGCAGGGGUCUAAAACUGAGCGGAUAACCUCUCUAUGG RNA 2: GGGAAUGGAUCCACAUCUACGAAUUCUAACCAUAGAGAGGUUAUCCGCUCACCUAGAUCGGAAGAGCACACGU | 22 ± 11
26 | target 1 MT 5'PFS UUA 3'PFS UGA (mixed) RNA 1: CACCCGUGCAAAAAUGCAGGGGUCUAAAACUGAGCGGAUAACCUCUCUAUGG RNA 2: GGGAAUGGAUCCACAUCUACGAAUUCUUACCAUAGAGAGGUUAUCCGCUCAUGAAGAUCGGAAGAGCACACGU | 100 ± 40
27 | target 1 MT 5'PFS GUC 3'PFS ACC (mixed) RNA 1: CACCCGUGCAAAAAUGCAGGGGUCUAAAACUGAGCGGAUAACCUCUCUAUGG RNA 2: GGGAAUGGAUCCACAUCUACGAAUUCGUCCCAUAGAGAGGUUAUCCGCUCAACCAGAUCGGAAGAGCACACGU | 25.8 ± 4.2
28 | target 1 MT 5'PFS AGG 3'PFS UCG (mixed) RNA 1: CACCCGUGCAAAAAUGCAGGGGUCUAAAACUGAGCGGAUAACCUCUCUAUGG RNA 2: GGGAAUGGAUCCACAUCUACGAAUUCAGGCCAUAGAGAGGUUAUCCGCUCAUCGAGAUCGGAAGAGCACACGU | 51 ± 21
